Here are results for four molecules from PMC8113879, “Molecular properties of human guanylate cyclase–activating protein 2 (GCAP2) and its retinal dystrophy–associated variant G157R” (The Journal of Biological Chemistry, 2021).

The target in one series is GCAP2 (Bos taurus) (UniProt P51177). Nature of the series: sedimentation equilibrium. To be noted: cited from earlier work.
Series [1] concerns the molecule itself. Put plainly: MALDI-TOF MS; 1.0 mg/ml protein in 20 mM Tris HCl pH 7.5, 150 mM KCl, 1 mM DTT, desalted by ZipTip C4, sinapinic acid matrix; dimer peaks beside the monomer peak.
Series [2] deals with the molecule itself. Nature of the series: SEC; analytical SEC, Superose 12 10/300GL, 20 mM Tris HCl pH 7.5, 150 mM KCl, 1 mM DTT, 1 mM Mg2+ + 500 uM Ca2+, 25 C; ~40 uM protein or 5-80 uM for the titration; apparent KD from a hyperbolic fit of apparent mass against concentration; monomer to dimer. For orientation: SEC sorts molecules by how far they enter the pores of the column.

Series [3] concerns the molecule itself. Put plainly: SEC; analytical SEC, Superose 12 10/300GL, 20 mM Tris HCl pH 7.5, 150 mM KCl, 1 mM DTT, 500 uM EGTA + 1 mM Mg2+ (no Ca2+), 25 C; ~40 uM protein or 5-80 uM for the titration; apparent KD from a hyperbolic fit of apparent mass against concentration; monomer to dimer.

GCAP2 (Bos taurus), sequence (P51177 2-204): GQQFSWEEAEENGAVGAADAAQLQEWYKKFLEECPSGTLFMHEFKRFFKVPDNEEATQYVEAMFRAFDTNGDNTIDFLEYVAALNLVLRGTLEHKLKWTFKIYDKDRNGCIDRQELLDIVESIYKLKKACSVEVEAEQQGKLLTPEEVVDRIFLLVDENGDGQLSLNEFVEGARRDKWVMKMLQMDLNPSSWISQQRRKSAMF

As for GCAP2 (from UniProt P51177), in the series with GCAP2 (Bos taurus), the Kd is 52 µM.

B1: nonmyristoylated human guanylate cyclase-activating protein 2 (natural protein, UniProt Q9UMX6 1-200, looked up)
chain: MGQEFSWEEAEAAGEIDVAELQEWYKKFVMECPSGTLFMHEFKRFFKVTDDEEASQYVEGMFRAFDKNGDNTIDFLEYVAALNLVLRGTLEHKLKWTFKIYDKDGNGCIDRLELLNIVEGIYQLKKACRRELQTEQGQLLTPEEVVDRIFLLVDENGDGQLSLNEFVEGARRDKWVMKMLQMDMNPSSWLAQQRRKSAMF
notes: cDNA cloned into pET-11a(+) with NdeI and NheI; No tag is mentioned; also called nmGCAP2; nonmyristoylated GCAP2
In general, stoichiometry N refers to a count of units in the complex or per binding partner. As to B1, in series [1], the “stoichiometry N” value turned out to be 2.

B2: myristoylated human GCAP2 G157R variant (natural protein, UniProt Q9UMX6 1-200, looked up)
chain: MGQEFSWEEAEAAGEIDVAELQEWYKKFVMECPSGTLFMHEFKRFFKVTDDEEASQYVEGMFRAFDKNGDNTIDFLEYVAALNLVLRGTLEHKLKWTFKIYDKDGNGCIDRLELLNIVEGIYQLKKACRRELQTEQGQLLTPEEVVDRIFLLVDENRDGQLSLNEFVEGARRDKWVMKMLQMDMNPSSWLAQQRRKSAMF
modifications: myristic acid covalently bound to the N-terminal Gly
notes: The variant occurs in patients (Japanese families with retinitis pigmentosa); also called G157R GCAP2; IRD-associated G157R variant
For B2, in series [1], the “stoichiometry N” value stood at 2.

B3: myristoylated human guanylate cyclase-activating protein 2 (natural protein, UniProt Q9UMX6 1-200, looked up)
chain: MGQEFSWEEAEAAGEIDVAELQEWYKKFVMECPSGTLFMHEFKRFFKVTDDEEASQYVEGMFRAFDKNGDNTIDFLEYVAALNLVLRGTLEHKLKWTFKIYDKDGNGCIDRLELLNIVEGIYQLKKACRRELQTEQGQLLTPEEVVDRIFLLVDENGDGQLSLNEFVEGARRDKWVMKMLQMDMNPSSWLAQQRRKSAMF
modifications: myristic acid covalently bound to the N-terminal Gly
notes: cDNA cloned into pET-11a(+) with NdeI and NheI; Myristoylation was confirmed by MALDI-TOF (difference of 212.2 Da to nmGCAP2); Surmised: the first methionine is removed so that Gly2 is the myristoylated N-terminus; also called mGCAP2; myristoylated GCAP2
As for B3, the Kd was 55.4 µM in series [2] and below 1 µM in series [3]. Besides, the “stoichiometry N” value in series [1] was determined as 2.
